Here are results for one substance from publication PMC11246235.

This assay addresses CST (FLAG-Ctc1, Stn1, HA-Ten1) purified from HEK293T/17 cells (human) (UniProt Q2NKJ3). Briefly: co-IP.

Consider “Polα/primase (endogenous), P09884 1-1462; Q14181 1-598; P49642 1-420; P49643 1-509”, for which the stoichiometry of Polα/primase to CST worked out at 20%.
